T1: FcγRIIb (human, UniProt P31994 43-217)
T1 construct: extracellular domain; also called FcgRIIb; 2b
T1 sequence (looked up): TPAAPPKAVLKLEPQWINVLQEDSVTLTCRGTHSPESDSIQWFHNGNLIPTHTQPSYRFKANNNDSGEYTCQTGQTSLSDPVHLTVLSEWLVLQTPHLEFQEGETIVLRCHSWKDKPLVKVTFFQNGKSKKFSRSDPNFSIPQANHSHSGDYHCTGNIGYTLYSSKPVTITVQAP

T2: FcγRIIa R (human, UniProt P12318 34-217)
T2 construct: extracellular domain; also called FcgRIIa R type; 2aR
T2 sequence (looked up): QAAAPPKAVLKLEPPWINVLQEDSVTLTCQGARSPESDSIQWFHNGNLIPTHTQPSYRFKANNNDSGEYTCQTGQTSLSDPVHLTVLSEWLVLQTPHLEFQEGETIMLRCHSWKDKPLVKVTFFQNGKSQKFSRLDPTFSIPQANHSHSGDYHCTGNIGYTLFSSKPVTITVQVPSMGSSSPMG

T3: FcγRIIb extracellular domain with C-terminal His tag (human, UniProt P31994 43-217)
T3 construct: extracellular domain; also called FcgRIIb; 2b; not shown: His tag at the C terminus
T3 sequence (looked up): T1 sequence (looked up)

B1: GpH7-A5/GpH7-B3 variant S298_05P/GpL16-k0 (antibody, human IgG1, kappa)
heavy 1: not shown
heavy 2: not shown
light: DIVMTQSPLSLPVTPGEPASISCQASESLVHSNRNTYLHWYLQKPGQSPQLLIYKVSNRFSGVPDRFSGSGSGTDFTLKISRVEAEDVGVYYCSQNTHVPPTFGQGTKVEIERTVAAPSVFIFPPSDEQLKSGTASVVCLLNNFYPREAKVQWKVDNALQSGNSQESVTEQDSKDSTYSLSSTLTLSKADYEKHKVYACEVTHQGLSSPVTKSFNRGEC
notes: heterodimerized antibody, mutation in the GpH7-B3 chain only; also called He Ab
B2: GpH7-A5/GpH7-B3 variant S298_07I/GpL16-k0 (antibody, human IgG1, kappa)
heavy 1: not shown
heavy 2: not shown
light: B1 light
notes: as for B1
B3: GpH7-A5/GpH7-B3 variant S298_09D/GpL16-k0 (antibody, human IgG1, kappa)
heavy 1: not shown
heavy 2: not shown
light: B1 light
notes: as for B1
B4: GpH7-A5/GpH7-B3 variant Y296_12R/GpL16-k0 (antibody, human IgG1, kappa)
heavy 1: not shown
heavy 2: not shown
light: B1 light
notes: as for B1
B5: GpH7-A5/GpH7-B3 variant Y296_05P/GpL16-k0 (antibody, human IgG1, kappa)
heavy 1: not shown
heavy 2: not shown
light: B1 light
notes: as for B1
B6: GpH7-A5/GpH7-B3 variant Y296_03V/GpL16-k0 (antibody, human IgG1, kappa)
heavy 1: not shown
heavy 2: not shown
light: B1 light
notes: as for B1
B7: GpH7-A5/GpH7-B3 variant Y296_11K/GpL16-k0 (antibody, human IgG1, kappa)
heavy 1: not shown
heavy 2: not shown
light: B1 light
notes: as for B1
B8: GpH7-A5/GpH7-B3 variant V266_16H/GpL16-k0 (antibody, human IgG1, kappa)
heavy 1: not shown
heavy 2: not shown
light: B1 light
notes: as for B1
B9: GpH7-A5/GpH7-B3 variant Y296_01G/GpL16-k0 (antibody, human IgG1, kappa)
heavy 1: not shown
heavy 2: not shown
light: B1 light
notes: as for B1
B10: GpH7-A5/GpH7-B3 variant P238_03V/GpL16-k0 (heterodimerized antibody, He Ab) (antibody, human IgG1, kappa)
heavy 1: not shown
heavy 2: not shown
light: B1 light
notes: Anti-glypican-3 IgG1; the alteration is in the GpH7-B3 chain only; also called P238V
B11: GpH7-A5/GpH7-B3 variant G237_08L/GpL16-k0 (heterodimerized antibody, He Ab) (antibody, human IgG1, kappa)
heavy 1: not shown
heavy 2: not shown
light: B1 light
notes: Anti-glypican-3 IgG1; the alteration is in the GpH7-B3 chain only; also called G237L
B12: GpH7-A5/GpH7-B3 variant G237_13S/GpL16-k0 (heterodimerized antibody, He Ab) (antibody, human IgG1, kappa)
heavy 1: not shown
heavy 2: not shown
light: B1 light
notes: Anti-glypican-3 IgG1; the alteration is in the GpH7-B3 chain only; also called G237S
B13: GpH7-A5/GpH7-B3 variant G237_16H/GpL16-k0 (heterodimerized antibody, He Ab) (antibody, human IgG1, kappa)
heavy 1: not shown
heavy 2: not shown
light: B1 light
notes: Anti-glypican-3 IgG1; the alteration is in the GpH7-B3 chain only; also called G237H
B14: GpH7-A5/GpH7-B3 variant G236_10E/GpL16-k0 (heterodimerized antibody, He Ab) (antibody, human IgG1, kappa)
heavy 1: not shown
heavy 2: not shown
light: B1 light
notes: Anti-glypican-3 IgG1; the alteration is in the GpH7-B3 chain only; also called G236E

biological target: T1, FcγRIIb; assay: SPR (Biacore), antibody captured, FcγR as analyte; relative binding

Binder	He/Con_2b (IIb binding)
B1	11.9 % of GpH7-A5/GpH7-B3/GpL16-k0 (=100)
B2	70.6 % of GpH7-A5/GpH7-B3/GpL16-k0 (=100)
B3	48.3 % of GpH7-A5/GpH7-B3/GpL16-k0 (=100)
B4	79.5 % of GpH7-A5/GpH7-B3/GpL16-k0 (=100)
B5	36.6 % of GpH7-A5/GpH7-B3/GpL16-k0 (=100)
B6	79.3 % of GpH7-A5/GpH7-B3/GpL16-k0 (=100)
B7	72.8 % of GpH7-A5/GpH7-B3/GpL16-k0 (=100)
B8	57.2 % of GpH7-A5/GpH7-B3/GpL16-k0 (=100)
B9	79.3 % of GpH7-A5/GpH7-B3/GpL16-k0 (=100)

biological target: T2, FcγRIIa R; assay: as above

Binder	He/Con_2aR (IIaR binding)
B1	16 % of GpH7-A5/GpH7-B3/GpL16-k0 (=100)
B2	90.1 % of GpH7-A5/GpH7-B3/GpL16-k0 (=100)
B3	67.8 % of GpH7-A5/GpH7-B3/GpL16-k0 (=100)
B4	99.6 % of GpH7-A5/GpH7-B3/GpL16-k0 (=100)
B5	47.7 % of GpH7-A5/GpH7-B3/GpL16-k0 (=100)
B6	96.2 % of GpH7-A5/GpH7-B3/GpL16-k0 (=100)
B7	94.3 % of GpH7-A5/GpH7-B3/GpL16-k0 (=100)
B8	76.5 % of GpH7-A5/GpH7-B3/GpL16-k0 (=100)
B9	95.8 % of GpH7-A5/GpH7-B3/GpL16-k0 (=100)

biological target: T2, FcγRIIa R; assay: SPR; He/Con_2aR divided by He/Con_2b (FcγRIIb as reference)
Protocol: The heterodimerized antibodies He Abs in which one of the H chains was introduced with an alteration were assayed for their binding activities to each activating FcγR and inhibitory FcγR according to the method described in Example 4. […] The activating FcγRs in FIGS. 26, 27, 28, and 29 are FcγRIa, FcγRIIa (R), FcγRIIa (H), and FcγRIIIa, respectively.
(§1) Analysis of interaction between objective antibody and the FcγR was carried out using Biacore T100 (GE Healthcare). HBS-EP+ (GE Healthcare) was used as the running buffer, and the measurement temperature was set to 25° C. Chips produced by immobilizing the antigen peptide by the amine coupling method to a Series S Sencor Chip CM5 (GE Healthcare), or alternatively, chips produced by allowing preliminarily biotinylated antigen peptides to interact with and immobilize onto a Series S Sensor Chip SA (certified) (GE Healthcare) were used. Antibodies of interest were captured onto an antigen peptide-immobilized chip, and allowed to interact to each FcγR diluted with running buffer. To regenerate and repeatedly use the chip, the antibodies captured on the chip were washed off by reacting 10 mM glycine-HCl, pH 1.5.

Binder	IIaR/IIb (He_2aR/2b) [ratio]
B1	1.34
B2	1.28
B3	1.4
B4	1.25
B5	1.3
B6	1.21
B7	1.3
B8	1.34
B9	1.21

biological target: T3, FcγRIIb extracellular domain with …; assay: SPR (Biacore), captured antibody, FcγR as analyte; relative to GpH7-A5/GpH7-B3/GpL16-k0 = 100
Protocol: as §1
(§2) The FcγR-binding activity of each antibody was assessed primarily using as an indicator the FcγR-binding activity and dissociation constant for FcγR.

Binder	He/Con_2b (IIb binding)
B10	120 % of HeCon Ab
B11	148 % of HeCon Ab
B12	111 % of HeCon Ab
B13	55.2 % of HeCon Ab
B14	110 % of HeCon Ab

biological target: T4, FcγRIIIa extracellular domain with C-terminal His tag (human, UniProt P08637 17-208); assay: as above
T4 construct: extracellular domain; also called FcgRIIIa; 3a; not shown: His tag at the C terminus
Protocol: as §1, §2

T4 sequence (P08637 17-208): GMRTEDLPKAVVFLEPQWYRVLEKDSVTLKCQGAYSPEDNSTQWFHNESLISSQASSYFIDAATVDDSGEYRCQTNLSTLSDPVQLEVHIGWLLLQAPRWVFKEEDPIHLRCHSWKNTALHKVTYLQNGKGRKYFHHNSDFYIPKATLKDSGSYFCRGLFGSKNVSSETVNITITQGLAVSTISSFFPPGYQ

Binder	He/Con_3a (IIIa binding)
B10	43.8 % of HeCon Ab
B11	24.9 % of HeCon Ab
B12	38.4 % of HeCon Ab
B13	17.2 % of HeCon Ab
B14	70.7 % of HeCon Ab
